Laboratory results from patent publication US20050144661A1 (WASHINGTON UNIVERSITY, published 2005).

B3: CLuc-STAT1 (other, Photinus pyralis;human, UniProt P08659 398-550, looked up)
chain: MSGYVNNPEATNALIDKDGWLHSGDIAYWDEDEHFFIVDRLKSLIKYKGYQVAPAELESILLQHPNIFDAGVAGLPDDDAGELPAAVVVLEHGKTMTEKEIVDYVASQVTTAKKLRGGVVFVDEVPKGLTGKLDARKIREILIKAKKGGKSKLMSQWYELQQLDSKFLEQVHQLYDDSFPMEIRQYLAQWLEKQDWEHAANDVSFATIRFHDLLSQLDDQYSRFSLENNFLLQHNIRKSKRNLQDNFQEDPIQMSMIIYSCLKEERKILENAQRFNQAQSGNIQSTVMLDKQKELDSKVRNVKDKVMCIEHEIKSLEDLQDEYDFKCKTLQNREHETNGVAKSDQKQEQLLLKKMYLMLDNKRKEVVHKIIELLNVTELTQNALINDELVEWKRRQQSACIGGPPNACLDQLQNWFTIVAESLQQVRQQLKKLEELEQKYTYEHDPITKNKQVLWDRTFSLFQQLIQSSFVVERQPCMPTHPQRPLVLKTGVQFTVKLRLLVKLQELNYNLKVKVLFDKDVNERNTVKGFRKFNILGTHTKVMNMEESTNGSLAAEFRHLQLKEQKNAGTRTNEGPLIVTEELHSLSFETQLCQPGLVIDLETTSLPVVVISNVSQLPSGWASILWYNMLVAEPRNLSFFLTPPCARWAQLSEVLSWQFSSVTKRGLNVDQLNMLGEKLLGPNASPDGLIPWTRFCKENINDKNFPFWLWIESILELIKKHLLPLWNDGCIMGFISKERERALLKDQQPGTFLLRFSESSREGAITFTWVERSQNGGEPDFHAVEPYTKKELSAVTFPDIIRNYKVMAAENIPENPLKYLYPNIDKDHAFGKYYSRPKEAPEPMELDGPKGTGYIKTELISVSEVHPSRLQTTDNLLPMSPEEFDEVSRIVGSVEFDSMMNTV
modifications: unphosphorylated on Y701 in untreated cells (Western blot); phosphorylated after IFN-γ
notes: not shown: Gly/Ser linker with cloning sites

Experiments:
Unfused CLuc = target: T1, Unfused CLuc (Photinus pyralis); test: cell-based or functional assay
T1 chain: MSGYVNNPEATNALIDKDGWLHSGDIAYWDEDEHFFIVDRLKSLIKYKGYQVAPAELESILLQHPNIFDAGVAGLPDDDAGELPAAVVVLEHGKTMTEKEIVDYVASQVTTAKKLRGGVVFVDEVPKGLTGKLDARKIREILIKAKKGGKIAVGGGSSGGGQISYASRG

CLuc(398-550)-FKBP [1] = target: T2, CLuc(398-550)-FKBP (Photinus pyralis; human, UniProt P08659 398-550 = luciferase; P62942 1-108); test: cell-based or functional assay
CLuc-STAT1 = target: B3; test: LCI, live HEK-293 cells
STAT1-NLuc = target: T3, STAT1-NLuc (human; Photinus pyralis, UniProt P42224 1-750; P08659 2-416 = luciferase, unphosphorylated on Y701 in untreated cells (Western blot); phosphorylated after IFN-γ); test: LCI, live HEK-293 cells
T3 construct: not shown: Gly/Ser linker region reconstituted up to the BsiWI site

CLuc(398-550)-FKBP [2] = target: T2, CLuc(398-550)-FKBP; test: LCI in mice with i.p. implants of transfected HEK-293 cells, with and without rapamycin

B1: FRB-NLuc(2-416) (other, human;Photinus pyralis, UniProt P42345 2024-2113, looked up)
chain: HEMWHEGLEEASRLYFGERNVKGMFEVLEPLHAMMERGPQTLKETSFNQAYGRDLMEAQEWCRKYMKSGNVKDLTQAWDLYYHVFRRISKEDAKNIKKGPAPFYPLEDGTAGEQLHKAMKRYALVPGTIAFTDAHIEVNITYAEYFEMSVRLAEAMKRYGLNTNHRIVVCSENSLQFFMPVLGALFIGVAVAPANDIYNERELLNSMNISQPTVVFVSKKGLQKILNVQKKLPIIQKIIIMDSKTDYQGFQSMYTFVTSHLPPGFNEYDFVPESFDRDKTIALIMNSSGSTGLPKGVALPHRTACVRFSHARDPIFGNQIIPDTAILSVVPFHHGFGMFTTLGYLICGFRVVLMYRFEEELFLRSLQDYKIQSALLVPTLFSFFAKSTLIDKYDLSNLHEIASGGAPLSKEVGEAVAKRFHLPGIRQGYGLTETTSAILITPEGDDKPGAVGKVVPFFEAKVVDLDTGKTLGVNQRGELCVRGPMIMSGYVNNPEATNALIDKDG
notes: range 2024-2113;range 2-416; The printed ORF starts with an added Met (MEMWHEG...); not shown: flexible Gly/Ser linker with multiple cloning site
bioluminescence signal against FRB-NLuc/CLuc-FKBP without rapamycin (Unfused CLuc): 3 fold lower
apparent Kd of rapamycin for induced FRB/FKBP association, bioluminescence readout in intact HEK-293 cells (CLuc(398-550)-FKBP [1]): 1.5 nM
apparent Ki of FK506 for inhibition of rapamycin-induced luciferase activity in situ (rapamycin 80 nM) (CLuc(398-550)-FKBP [1]): 4.2 nM
bioluminescence induction by rapamycin (80 nM) in cell lysates over untreated lysates, within 15 minutes (CLuc(398-550)-FKBP [1]): 18 fold
drug-specific induction of bioluminescence over background (CLuc(398-550)-FKBP [1]): 1200 fold
maximal mean bioluminescence signal over untransfected cells, with rapamycin, live HEK-293 cells (CLuc(398-550)-FKBP [1]): 72 fold
maximum bioluminescence in rapamycin-treated mice over untreated mice (i.p. cell implants) (CLuc(398-550)-FKBP [1]): 23 fold
mean maximal increase in bioluminescence with rapamycin (80 nM) over untreated transfected cells, within 4-6 hrs (CLuc(398-550)-FKBP [1]): 6 fold
binding result (CLuc-STAT1): no binding

B2: Unfused NLuc (2-416) (other, Photinus pyralis, UniProt P08659 2-416, looked up)
chain: EDAKNIKKGPAPFYPLEDGTAGEQLHKAMKRYALVPGTIAFTDAHIEVNITYAEYFEMSVRLAEAMKRYGLNTNHRIVVCSENSLQFFMPVLGALFIGVAVAPANDIYNERELLNSMNISQPTVVFVSKKGLQKILNVQKKLPIIQKIIIMDSKTDYQGFQSMYTFVTSHLPPGFNEYDFVPESFDRDKTIALIMNSSGSTGLPKGVALPHRTACVRFSHARDPIFGNQIIPDTAILSVVPFHHGFGMFTTLGYLICGFRVVLMYRFEEELFLRSLQDYKIQSALLVPTLFSFFAKSTLIDKYDLSNLHEIASGGAPLSKEVGEAVAKRFHLPGIRQGYGLTETTSAILITPEGDDKPGAVGKVVPFFEAKVVDLDTGKTLGVNQRGELCVRGPMIMSGYVNNPEATNALIDKDG
background bioluminescence against the FRB-NLuc/CLuc-FKBP pair in the absence of rapamycin (Unfused CLuc): 12 fold less
background bioluminescence against the FRB-NLuc/CLuc-FKBP pair in the presence of rapamycin (Unfused CLuc): 100 fold less

B3
binding result (STAT1-NLuc): binds

B4: Cdc25C-NLuc (other, human;Photinus pyralis, UniProt P30307 1-473, looked up)
chain: MSTELFSSTREEGSSGSGPSFRSNQRKMLNLLLERDTSFTVCPDVPRTPVGKFLGDSANLSILSGGTPKRCLDLSNLSSGEITATQLTTSADLDETGHLDSSGLQEVHLAGMNHDQHLMKCSPAQLLCSTPNGLDRGHRKRDAMCSSSANKENDNGNLVDSEMKYLGSPITTVPKLDKNPNLGEDQAEEISDELMEFSLKDQEAKVSRSGLYRSPSMPENLNRPRLKQVEKFKDNTIPDKVKKKYFSGQGKLRKGLCLKKTVSLCDITITQMLEEDSNQGHLIGDFSKVCALPTVSGKHQDLKYVNPETVAALLSGKFQGLIEKFYVIDCRYPYEYLGGHIQGALNLYSQEELFNFFLKKPIVPLDTQKRIIIVFHCEFSSERGPRMCRCLREEDRSLNQYPALYYPELYILKGGYRDFFPEYMELCEPQSYCPMHHQDHKTELLRCRSQSKVQEGERQLREQIALLVKDMSPEDAKNIKKGPAPFYPLEDGTAGEQLHKAMKRYALVPGTIAFTDAHIEVNITYAEYFEMSVRLAEAMKRYGLNTNHRIVVCSENSLQFFMPVLGALFIGVAVAPANDIYNERELLNSMNISQPTVVFVSKKGLQKILNVQKKLPIIQKIIIMDSKTDYQGFQSMYTFVTSHLPPGFNEYDFVPESFDRDKTIALIMNSSGSTGLPKGVALPHRTACVRFSHARDPIFGNQIIPDTAILSVVPFHHGFGMFTTLGYLICGFRVVLMYRFEEELFLRSLQDYKIQSALLVPTLFSFFAKSTLIDKYDLSNLHEIASGGAPLSKEVGEAVAKRFHLPGIRQGYGLTETTSAILITPEGDDKPGAVGKVVPFFEAKVVDLDTGKTLGVNQRGELCVRGPMIMSGYVNNPEATNALIDKDG
modifications: phosphorylated on S216 in the cells (Western blot, reduced by UCN-01)
notes: FRB of the NLuc fusion vector replaced by the Cdc25C open reading frame; not shown: Gly/Ser linker region reconstituted up to the BsiWI site
binding result (CLuc-STAT1): no binding

B5: CLuc-14-3-3ε (other, UniProt P08659 398-550, looked up)
chain: MSGYVNNPEATNALIDKDGWLHSGDIAYWDEDEHFFIVDRLKSLIKYKGYQVAPAELESILLQHPNIFDAGVAGLPDDDAGELPAAVVVLEHGKTMTEKEIVDYVASQVTTAKKLRGGVVFVDEVPKGLTGKLDARKIREILIKAKKGGKSKLMDDREDLVYQAKLAEQAERYDEMVESMKKVAGMDVELTVEERNLLSVAYKNVIGARRASWRIISSIEQKEENKGGEDKLKMIREYRQMVETELKLICCDILDVLDKHLIPAANTGESKVFYYKMKGDYHRYLAEFATGNDRKEAAENSLVAYKAASDIAMTELPPTHPIRLGLALNFSVFYYEILNSPDRACRLAKAAFDDAIAELDTLSEESYKDSTLIMQLLRDNLTLWTSDMQGDGEEQNKEALQDVEDENQ
notes: FKBP of the CLuc fusion vector replaced by 14-3-3ε; not shown: Gly/Ser linker with cloning sites
binding result (STAT1-NLuc): no binding

B6: S2035I FRB-NLuc (other)
chain: MEMWHEGLEEAIRLYFGERNVKGMFEVLEPLHAMMERGPQTLKETSFNQAYGRDLMEAQEWCRKYMKSGNVKDLTQAWDLYYHVFRRISKQQISYASRGGGSSGGGEDAKNIKKGPAPFYPLEDGTAGEQLHKAMKRYALVPGTIAFTDAHIEVDITYAEYFEMSVRLAEAMKRYGLNTNHRIVVCSENSLQFFMPVLGALFIGVAVAPANDIYNERELLNSMGISQPTVVFVSKKGLQKILNVQKKLPIIQKIIIMDSKTDYQGFQSMYTFVTSHLPPGFNEYDFVPESFDRDKTIALIMNSSGSTGLPKGVALPHRTACVRFSHARDPIFGNQIIPDTAILSVVPFHHGFGMFTTLGYLICGFRVVLMYRFEEELFLRSLQDYKIQSALLVPTLFSFFAKSTLIDKYDLSNLHEIASGGAPLSKEVGEAVAKRFHLPGIRQGYGLTETTSAILITPEGDDKPGAVGKVVPFFEAKVVDLDTGKTLGVNQRGELCVRGPMIMSGYVNNPEATNALIDKDG
notes: Point mutant of FRB-NLuc made by site directed mutagenesis; also called mutant FRB(S2035I); FRB(S20351)
binding result (CLuc(398-550)-FKBP [2]): no binding
